Assay results published in patent publication US20220073604A1 (ARGENX BVBA, published 2022).
“And” between values parts separate entries of the source, which are not always exact repeats. Identical values can stand only once.

B1: Fab 18C7 (Fab, V domains shown)
VH: EVQLVESGPGLVKPSQTLSLTCTVSGGSITASFDAWSWIRQPPGKGLEWMGVIAYDGSTYYSPSLKSRTSISRDTSKNQFSLQLSSVTPEDTAVYYCARKSSWLIGYGMDYWGKGTLVTVSS
VL: QAGLTQPSALSVTLGQTAKITCQGGSLGSSYAHWYQQKPGQAPVLVIYDDDSRPSGIPERFSGSSSGGRATLTISGAQAEDEGDYYCQSADSSGNAAVFGGGTHLTVLG
notes: Fab; also called 18C7 (090-423)
B2: Fab 18C11 (Fab, V domains shown)
VH: EVQLVESGGGLVQPGGSLRLSCAASGFTFSSYAMSWVRQAPGKGLEWVSAINSGGGSTSYADSVKGRFTISRDNAKNTLYLQMNSLKPEDTAVYYCAKEGDTGWKDPMYDYWGQGTQVTVSS
VL: QSVVTQPSALSVTLGQTAKITCQGGGLRSSYAHWYQQKPGQAPVLVIYDDDSRPSGIPERFSGSSSGGRATLTISGAQAEDEGDYYCQSADSSGNAAVFGGGTHLTVLG
notes: Fab
B3: Fab 41E10/35B1 (Fab, V domains shown)
VH: EVQLQESGPGLVKPSQTLSLTCTVSGGSIATSYYAWSWIRQPPGKGLEWMGVIDYDGDTYYKPSLKSRTSISRDTSKNQFSLQLSSVTPEDTAVYYCARAGLGDSYYLGTYYAMDYWGKGTLVTVSS
VL: QAVLTQPPSMSGTLGKTLTISCNGTSSDIGSGNYVSWYQQLPGTTPKLLIEGVTTRVSGIPDRFSGSKSDNTASLTISGLQSEDEATYYCASYRETNNVVFGGGTHLTVLG
notes: VL-shuffled Fab of 17F10
B4: Fab 41B5/35C1 (Fab, V domains shown)
VH: EVQLQESGPGLVKPSQTLSLTCTVSGGSIATSYYAWSWIRQPPGKGLEWMGVIDYDGDTYYKPSLKSRTSISRDTSKNQFSLQLSSVTPEDTAVYYCARAGLGDSYYLGTYYAMDYWGKGTLVTVSS
VL: QSALTQPPSMSGTLGKTLTISCNGTSSDIGSGDYVSWYQQLPGTTPKLLIEGVTTRASGIPDRFSASKSDNTASLTISGLQSEDEATYYCASYRETNNVVFGGGTHLTVLS
notes: VL-shuffled Fab of 17F10
B5: Fab 20A4 (Fab, V domains shown)
VH: EVQLQESGPGLVKPSQTLSLTCTVSGGSITTRYYAWSWIRQPPGKGLEWMGVIDYDGDTYYSPSLKSRTSISWDTSKNQFSLQLSSVTPEDTAVYYCARDPDVVTGFHYDYWGQGTQVTVSS
VL: LNFMLTQPPSVSGTLGKTVTISCAGTSSDIGGYNYVSWYQQLPGTAPKLLIHRVSTRASGIPDRFSGSKSGNTASLTISGLRSEDEANYYCASYRNFNNAVFGGGTQLTVLG
notes: Fab
B6: Fab 42H1/36A1 (Fab, V domains shown)
VH: EVQLVESGGGLVQPGGSLRLSCAASGFTFSSYAMSWVRQAPGKGLEWVSAINSGGGSTSYADSVKGRFTISRDNAKNTLYLQMNSLKPEDTAVYYCAKEGDTGWKDPMYDYWGQGTQVTVSS
VL: AQSALTQPSALSVTLGQTAKITCQGGSLGTRYAHWYQQKPGQAPVLVIYDDDSRPSGIPERFSGSSSGGRATLTISGAQAEDEGDYYCQSADSSGNASVFGGGTHLTVLG
notes: VL-shuffled Fab of 18C11
B7: Fab 55C1 (Fab, V domains shown)
VH: EVQLVESGGGLVQPGGSLRLSCAASGFTFSSYAMSWVRQAPGKGLEWVSRISSGGISTYYADSVKGRFTISRDNAKNTLYLQMNSLKPEDTAVYYCVRYAWGVQWAFDFWGQGTQVTVSS
VL: LNFMLTQPPSVSGSPGKTVTISCAGTSSDVGYGNYVSWYQQLPGTAPKLLIYNVNKRASGITDRFSGSKSGNTASLTISGLQSEDEADYYCASYRTGDNAAFGGGTKLTVLG
notes: VL-shuffled Fab of 29B11, periplasmic fraction; also called 55C1a
B8: Fab 55H1 (Fab, V domains shown)
VH: EVQLVESGGGLVQPGGSLRLSCAASGFTFSSYAMSWVRQAPGKGLEWVSRISSGGISTYYADSVKGRFTISRDNAKNTLYLQMNSLKPEDTAVYYCVRYAWGVQWAFDFWGQGTQVTVSS
VL: AQSVVTQPPSVSGSPGKTVTISCAGTSSDVGYGNYVSWYQQLPGMAPKLLIYDVSKRASGIADRFSGSKSGNTASLTISGLQSEDEADYVCASYRRGGTAVFGGGTHLTVLG
notes: VL-shuffled Fab of 29B11, periplasmic fraction; also called 55H1c
B9: Fab 47C2 (Fab, V domains shown)
VH: EVQLVESGGGLVQPGGSLRLSCAASGFTFSSYAMSWVRQAPGKGLEWVSRISSGGISTYYADSVKGRFTISRDNAKNTLYLQMNSLKPEDTAVYYCVRYAWGVQWAFDFWGQGTQVTVSS
VL: LSYDLTQPPSVSGSPGKTVTISCAGTSSDVGYGNYVSWYQQLPGMAPKILIYDVNKRASGIADRFSGSKSGNTASLTISGLQSEDEADYYCASYRRGETIVFGGGTHLTVLG
notes: VL-shuffled Fab of 29B11, periplasmic fraction; also called 47C2 (R4)
B10: Fab 55E2 (Fab, V domains shown)
VH: EVQLVESGGGLVQPGGSLRLSCAASGFTFSSYAMSWVRQAPGKGLEWVSRISSGGISTYYADSVKGRFTISRDNAKNTLYLQMNSLKPEDTAVYYCVRYAWGVQWAFDFWGQGTQVTVSS
VL: AQSVLTQPPSVSGSPGKTVTISCAGTSSDVGYGNYVSWYQQLPGMAPKLLIYDVNKRASGIADRFSGSKFANTASLTISGLQSEDEADYYCASYKRGDNAVFGGGTKLTVLG
notes: VL-shuffled Fab of 29B11, periplasmic fraction; also called 55E2b
B11: Fab 48C10 (Fab, V domains shown)
VH: EVQLVESGGGLVQPGGSLRLSCAASGFTFSSYAMSWVRQAPGKGLEWVSRISSGGISTYYADSVKGRFTISRDNAKNTLYLQMNSLKPEDTAVYYCVRYAWGVQWAFDFWGQGTQVTVSS
VL: AQSVLTQPPSVSGSPGQTVTISCAGTSEDVGYGNYVSWYQQLPGMAPKLLIYDVNKRASGIADRFSGSKSGNTASLTISGLQSEDEADYYCASYRRTIDNIFGGGTHLTVLG
notes: VL-shuffled Fab of 29B11, periplasmic fraction

Assays:
[1] = molecular target: T1, bacterially produced human IL-6 (human, UniProt P05231 30-212); assay: SPR; purified Fab
T1 construct: also called bactIL-6; prokaryotic IL-6

[2] = molecular target: T2, eukaryotically produced human IL-6 (human, UniProt P05231 30-212); assay: SPR; purified Fab
T2 construct: also called eukIL-6; Euk IL-6

cynomolgus monkey IL-6 [3] = molecular target: T3, cynomolgus monkey IL-6 (cynomolgus monkey, UniProt P79341 28-212, limits assumed); assay: SPR; purified Fab
T3 construct: also called HIS-cyIL-6

[4] = molecular target: T1, bacterially produced human IL-6; assay: SPR; purified Fab; IL-6 coated on CM5 chip
Description: (§1) From the washing phase the off-rate (kd) was determined, while from the injection phase the on-rate (ka) was calculated using the concentration and off-rate as parameters.

[5] = molecular target: T2, eukaryotically produced human IL-6; assay: SPR; purified Fab; IL-6 coated on CM5 chip
Description: as §1

[6] = molecular target: T1, bacterially produced human IL-6; assay: SPR; purified Fab over biotinylated IL-6 on streptavidin chip
Description: as §1

[7] = molecular target: T1, bacterially produced human IL-6; assay: SPR; periplasmic fraction
[8] = molecular target: T2, eukaryotically produced human IL-6; assay: SPR; periplasmic fraction
cynomolgus monkey IL-6 [9] = molecular target: T3, cynomolgus monkey IL-6; assay: SPR; periplasmic fraction
[10] = molecular target: T1, bacterially produced human IL-6; assay: SPR; periplasmic fraction; against parental 29B11
[11] = molecular target: T2, eukaryotically produced human IL-6; assay: SPR; periplasmic fraction; against parental 29B11
cynomolgus monkey IL-6 [12] = molecular target: T3, cynomolgus monkey IL-6; assay: SPR; periplasmic fraction; against parental 29B11

Kd [1] | koff [1] | Kd [2] | koff [2] | Kd (cynomolgus monkey IL-6 [3]) | koff (cynomolgus monkey IL-6 [3]) | Ka [7] | Kd [7] | koff [7] | kon [7] | Ka (cynomolgus monkey IL-6 [9]) | Kd (cynomolgus monkey IL-6 [9]) | koff (cynomolgus monkey IL-6 [9]) | kon (cynomolgus monkey IL-6 [9]) | fold improvement KD [10] | fold improvement ka [10] | fold improvement kd [10] | fold improvement KD (cynomolgus monkey IL-6 [12]) | fold improvement ka (cynomolgus monkey IL-6 [12]) | fold improvement kd (cynomolgus monkey IL-6 [12]) | other results | Binder
9.1 nM | 0.0011 s⁻¹ | 7.7 nM and 5.2 nM | 0.001 s⁻¹ and 0.00082 s⁻¹ | 5.3 nM and 4.9 nM | 0.00063 s⁻¹ and 0.00069 s⁻¹ | – | – | – | – | – | – | – | – | – | – | – | – | – | – | Kd [4]: 9.1 nM; koff [4]: 0.0011 s⁻¹; Kd [5]: 7.7 nM; koff [5]: 0.001 s⁻¹; Ka [6]: 5.7e+07 M⁻¹; Kd [6]: 17.5 nM; koff [6]: 0.00185 s⁻¹; kon [6]: 105000 M⁻¹ s⁻¹ | B1
– | – | 2.9 nM | 0.00076 s⁻¹ | 3.4 nM | 0.00085 s⁻¹ | – | – | – | – | – | – | – | – | – | – | – | – | – | – | Ka [6]: 7.05e+07 M⁻¹; Kd [6]: 14.2 nM; koff [6]: 0.000784 s⁻¹; kon [6]: 55200 M⁻¹ s⁻¹ | B2
0.54 nM | 0.00016 s⁻¹ | 0.46 nM | 0.00016 s⁻¹ | 0.34 nM | 0.00012 s⁻¹ | – | – | – | – | – | – | – | – | – | – | – | – | – | – | – | B3
0.47 nM | 0.00011 s⁻¹ | 0.41 nM and 0.92 nM | 0.00012 s⁻¹ and 0.0002 s⁻¹ | 0.28 nM and 0.72 nM | 8.1e-05 s⁻¹ and 0.00017 s⁻¹ | – | – | – | – | – | – | – | – | – | – | – | – | – | – | – | B4
2 nM | 0.00062 s⁻¹ | 0.81 nM | 0.0003 s⁻¹ | 1.7 nM | 0.00075 s⁻¹ | – | – | – | – | – | – | – | – | – | – | – | – | – | – | Kd [4]: 2 nM; koff [4]: 0.00062 s⁻¹; Kd [5]: 0.81 nM; koff [5]: 0.0003 s⁻¹; Ka [6]: 1.72e+08 M⁻¹; Kd [6]: 5.82 nM; koff [6]: 0.00168 s⁻¹; kon [6]: 288000 M⁻¹ s⁻¹ | B5
0.75 nM | 0.00015 s⁻¹ | 0.34 nM | 0.00011 s⁻¹ | 0.69 nM | 0.00015 s⁻¹ | – | – | – | – | – | – | – | – | – | – | – | – | – | – | – | B6
– | – | – | – | – | – | 7.6e+09 M⁻¹ | 0.132 nM | 7.38e-05 s⁻¹ | 561000 M⁻¹ s⁻¹ | 1.25e+09 M⁻¹ | 0.801 nM | 0.000381 s⁻¹ | 475000 M⁻¹ s⁻¹ | 3.97 fold | 2.24 fold | 1.78 fold | 8.25 fold | 4.2 fold | 1.96 fold | Ka [8]: 5.55e+09 M⁻¹; Kd [8]: 0.18 nM; koff [8]: 7.93e-05 s⁻¹; kon [8]: 440000 M⁻¹ s⁻¹; fold improvement KD [11]: 3.03 fold; fold improvement ka [11]: 2.35 fold; fold improvement kd [11]: 1.29 fold | B7
– | – | – | – | – | – | 1e+10 M⁻¹ | 0.0997 nM | 0.000127 s⁻¹ | 1.28e+06 M⁻¹ s⁻¹ | 1.89e+09 M⁻¹ | 0.529 nM | 0.000615 s⁻¹ | 1.16e+06 M⁻¹ s⁻¹ | 5.26 fold | 5.1 fold | 1.03 fold | 12.5 fold | 10.3 fold | 1.21 fold | Ka [8]: 1.02e+10 M⁻¹; Kd [8]: 0.0977 nM; koff [8]: 0.000111 s⁻¹; kon [8]: 1.13e+06 M⁻¹ s⁻¹; fold improvement KD [11]: 5.59 fold; fold improvement ka [11]: 6.04 fold; fold improvement kd [11]: 0.92 fold | B8
– | – | – | – | – | – | 3.56e+09 M⁻¹ | 0.281 nM | 0.000315 s⁻¹ | 1.12e+06 M⁻¹ s⁻¹ | 6.48e+08 M⁻¹ | 1.54 nM | 0.00131 s⁻¹ | 851000 M⁻¹ s⁻¹ | 1.86 fold | 4.46 fold | 0.42 fold | 4.29 fold | 7.53 fold | 0.57 fold | Ka [8]: 3.54e+09 M⁻¹; Kd [8]: 0.282 nM; koff [8]: 0.00024 s⁻¹; kon [8]: 849000 M⁻¹ s⁻¹; fold improvement KD [11]: 1.94 fold; fold improvement ka [11]: 4.54 fold; fold improvement kd [11]: 0.43 fold | B9
– | – | – | – | – | – | 7.28e+09 M⁻¹ | 0.137 nM | 6.72e-05 s⁻¹ | 489000 M⁻¹ s⁻¹ | 1.39e+09 M⁻¹ | 0.717 nM | 0.000336 s⁻¹ | 468000 M⁻¹ s⁻¹ | 3.82 fold | 1.95 fold | 1.95 fold | 9.22 fold | 4.14 fold | 2.22 fold | Ka [8]: 6.34e+09 M⁻¹; Kd [8]: 0.158 nM; koff [8]: 6.53e-05 s⁻¹; kon [8]: 414000 M⁻¹ s⁻¹; fold improvement KD [11]: 3.46 fold; fold improvement ka [11]: 2.21 fold; fold improvement kd [11]: 1.56 fold | B10
– | – | – | – | – | – | 1.43e+09 M⁻¹ | 0.701 nM | 0.000184 s⁻¹ | 262000 M⁻¹ s⁻¹ | 4.1e+08 M⁻¹ | 2.44 nM | 0.00044 s⁻¹ | 180000 M⁻¹ s⁻¹ | 0.75 fold | 1.04 fold | 0.71 fold | 2.71 fold | 1.59 fold | 1.7 fold | – | B11
